{"source": "paper PMC11839083", "about": "(bioRxiv, 2025)", "proteins": {"B1": {"name": "C1-GS4 (Aae NtrC1 residues 121–387 with GSGSLGQYL at the C-terminus) (other)", "chain": "LRKENELLRREKDLKEEEYVFESPKMKEILEKIKKISCAECPVLITGESGVGKEVVARLIHKLSDRSKEPFVALNVASIPRDIFEAELFGYEKGAFTGAVSSKEGFFELADGGTLFLDEIGELSLEAQAKLLRVIESGKFYRLGGRKEIEVNVRILAATNRNIKELVKEGKFREDLYYRLGVIEIEIPPLRERKEDIIPLANHFLKKFSRKYAKEVEGFTKSAQELLLSYPWYGNVRELKNVIERAVLFSEGKFIDRGELSCLVNSKGSGSLGQYL"}}, "target": "the molecule itself", "assay": "cryo-EM structure", "data": [{"protein": "B1", "values": [{"measurement": "binding result", "value": "binds"}]}]}
